Assay results taken from PMC9709245, “The stem region of α1,6-fucosyltransferase FUT8 is required for multimer formation but not catalytic activity” (The Journal of Biological Chemistry, 2022).
Where a chain is given by its changes, count along the chain named. Names may count otherwise. Values belong to the binder of their own block, whether it stands above or below them.

Key:
[1] = target: T1, alpha-1,6-fucosyltransferase FUT8 WT (human, UniProt Q9BYC5 1-575); experiment: co-IP; lysates (TBS, 1% Triton X-100) of HEK293 FUT8KO cells coexpressing Myc-tagged FUT8 WT or mutant with 3xFLAG-FUT8 WT; anti-DYKDDDDK antibody magnetic beads, 4 °C overnight; anti-Myc blot; IP signal divided by input, relative to FUT8 WT; conditions: partners not purified
T1 construct: No chain bears both Myc and 3xFLAG; also called Myc-FUT8; Myc-tagged FUT8; source: HEK293 FUT8KO, transfected, in lysate; not shown: Myc (copy from pcDNA6-mycHisA), C-terminal, kept; His tag (from the vector pcDNA6-mycHisA); 3xFLAG (other copy; from pME-3xFLAG), C-terminal, kept
T1 sequence (looked up): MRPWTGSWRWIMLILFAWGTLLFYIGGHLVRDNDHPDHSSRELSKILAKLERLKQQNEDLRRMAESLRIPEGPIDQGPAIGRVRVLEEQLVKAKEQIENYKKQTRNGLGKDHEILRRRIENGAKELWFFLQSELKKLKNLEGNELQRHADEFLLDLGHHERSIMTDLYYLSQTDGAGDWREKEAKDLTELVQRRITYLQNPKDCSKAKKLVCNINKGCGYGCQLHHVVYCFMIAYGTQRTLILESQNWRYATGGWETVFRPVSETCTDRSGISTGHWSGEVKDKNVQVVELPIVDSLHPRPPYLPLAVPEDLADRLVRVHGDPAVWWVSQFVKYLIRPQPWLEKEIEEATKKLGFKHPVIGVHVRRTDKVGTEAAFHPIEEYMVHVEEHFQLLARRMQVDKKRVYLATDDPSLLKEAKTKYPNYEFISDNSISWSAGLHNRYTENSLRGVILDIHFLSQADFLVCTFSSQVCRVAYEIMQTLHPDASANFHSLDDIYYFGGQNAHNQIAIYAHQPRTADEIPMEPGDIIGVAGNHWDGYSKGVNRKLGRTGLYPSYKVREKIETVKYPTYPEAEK

[2] = target: the molecule itself; experiment: native gel or EMSA; Blue Native PAGE (4% to 16%) of purified soluble His-FUT8, Western blot with anti-FUT8
[3] = target: the molecule itself; experiment: split reporter (BiFC, NanoBiT); NanoBiT; LgBiT and SmBiT fusions coexpressed in HEK293 FUT8KO cells; 0.6 μg of lysate protein (TBS, 1% Triton X-100) with Nano-Glo Live Cell Substrate at RT; luminescence relative to empty-vector (Mock) sample

coprecipitated anti-Myc signal (IP/input) relative to FUT8 WT [1]: 0.5 relative to FUT8 WT
B1: FUT8Δhelix 2 (enzyme, human, UniProt Q9BYC5 1-575, looked up)
chain: MRPWTGSWRWIMLILFAWGTLLFYIGGHLVRDNDHPDHSSRELSKILAKLERLKQQNEDLRRMAESLRIPEGPIDQGPNGLGKDHEILRRRIENGAKELWFFLQSELKKLKNLEGNELQRHADEFLLDLGHHERSIMTDLYYLSQTDGAGDWREKEAKDLTELVQRRITYLQNPKDCSKAKKLVCNINKGCGYGCQLHHVVYCFMIAYGTQRTLILESQNWRYATGGWETVFRPVSETCTDRSGISTGHWSGEVKDKNVQVVELPIVDSLHPRPPYLPLAVPEDLADRLVRVHGDPAVWWVSQFVKYLIRPQPWLEKEIEEATKKLGFKHPVIGVHVRRTDKVGTEAAFHPIEEYMVHVEEHFQLLARRMQVDKKRVYLATDDPSLLKEAKTKYPNYEFISDNSISWSAGLHNRYTENSLRGVILDIHFLSQADFLVCTFSSQVCRVAYEIMQTLHPDASANFHSLDDIYYFGGQNAHNQIAIYAHQPRTADEIPMEPGDIIGVAGNHWDGYSKGVNRKLGRTGLYPSYKVREKIETVKYPTYPEAEK
notes: human FUT8; start codon to the 234th base joined to the 316th to 1725th base of the cDNA, so that Helix 2 (Ala79-Arg105) is missing; also called Myc-tagged FUT8 Δhelix 2; source: HEK293 FUT8KO, transfected, in lysate; not shown: Myc, C-terminal, kept

coprecipitated anti-Myc signal (IP/input) relative to FUT8 WT [1]: 1.56 relative to FUT8 WT
B2: FUT8 Y100A/R105A (enzyme, human, UniProt Q9BYC5 1-575, looked up)
chain: T1 sequence (looked up) with Y100A, R105A
notes: human FUT8 with two point mutations in Helix 2 of the stem region; also called Myc-tagged FUT8 Y100A/R105A; source: HEK293 FUT8KO, transfected, in lysate; not shown: Myc, C-terminal, kept

coprecipitated anti-Myc signal (IP/input) relative to FUT8 WT [1]: 0.122 relative to FUT8 WT
B3: FUT8Δstem-GSx40 (enzyme, human)
chain: MRPWTGSWRWIMLILFAWGTLLFYIGGHLGSGSGSGSGSGSGSGSGSGSGSGSGSGSGSGSGSGSGSGSGSGSGSGSGSGSGSGSGSGSGSGSGSGSGSGSGSGSGSGSGKDHEILRRRIENGAKELWFFLQSELKKLKNLEGNELQRHADEFLLDLGHHERSIMTDLYYLSQTDGAGDWREKEAKDLTELVQRRITYLQNPKDCSKAKKLVCNINKGCGYGCQLHHVVYCFMIAYGTQRTLILESQNWRYATGGWETVFRPVSETCTDRSGISTGHWSGEVKDKNVQVVELPIVDSLHPRPPYLPLAVPEDLADRLVRVHGDPAVWWVSQFVKYLIRPQPWLEKEIEEATKKLGFKHPVIGVHVRRTDKVGTEAAFHPIEEYMVHVEEHFQLLARRMQVDKKRVYLATDDPSLLKEAKTKYPNYEFISDNSISWSAGLHNRYTENSLRGVILDIHFLSQADFLVCTFSSQVCRVAYEIMQTLHPDASANFHSLDDIYYFGGQNAHNQIAIYAHQPRTADEIPMEPGDIIGVAGNHWDGYSKGVNRKLGRTGLYPSYKVREKIETVKYPTYPEAEK
notes: human FUT8, start codon to the 87th base of the cDNA; the stem region Val30-Leu108 is replaced; glycine-serine repeat of 80 amino acids; human FUT8, 325th to 1725th base of the cDNA (coiled-coil domain to the C terminus); Anti-Myc blots show two bands (full size and about 50 kDa); also called Myc-tagged FUT8Δstem-GSx40; source: HEK293 FUT8KO, transfected, in lysate; not shown: Myc, C-terminal, …

coprecipitated anti-Myc signal (IP/input) relative to FUT8 WT [1]: 0.127 relative to FUT8 WT
B4: FUT8Δstem-GSx22 (enzyme, human)
chain: MRPWTGSWRWIMLILFAWGTLLFYIGGHLGSGSGSGSGSGSGSGSGSGSGSGSGSGSGSGSGSGSGSGSGSGSGKDHEILRRRIENGAKELWFFLQSELKKLKNLEGNELQRHADEFLLDLGHHERSIMTDLYYLSQTDGAGDWREKEAKDLTELVQRRITYLQNPKDCSKAKKLVCNINKGCGYGCQLHHVVYCFMIAYGTQRTLILESQNWRYATGGWETVFRPVSETCTDRSGISTGHWSGEVKDKNVQVVELPIVDSLHPRPPYLPLAVPEDLADRLVRVHGDPAVWWVSQFVKYLIRPQPWLEKEIEEATKKLGFKHPVIGVHVRRTDKVGTEAAFHPIEEYMVHVEEHFQLLARRMQVDKKRVYLATDDPSLLKEAKTKYPNYEFISDNSISWSAGLHNRYTENSLRGVILDIHFLSQADFLVCTFSSQVCRVAYEIMQTLHPDASANFHSLDDIYYFGGQNAHNQIAIYAHQPRTADEIPMEPGDIIGVAGNHWDGYSKGVNRKLGRTGLYPSYKVREKIETVKYPTYPEAEK
notes: human FUT8, start codon to the 87th base of the cDNA; the stem region Val30-Leu108 is replaced; glycine-serine repeat of 44 amino acids; human FUT8, 325th to 1725th base of the cDNA (coiled-coil domain to the C terminus); Anti-Myc blots show two bands (full size and about 50 kDa); also called Myc-tagged FUT8Δstem-GSx22; source: HEK293 FUT8KO, transfected, in lysate; not shown: Myc, C-terminal, …

B5: soluble His-FUT8 (Arg68-Lys575) (domain or fragment, human, UniProt Q9BYC5 68-575, looked up)
chain: RIPEGPIDQGPAIGRVRVLEEQLVKAKEQIENYKKQTRNGLGKDHEILRRRIENGAKELWFFLQSELKKLKNLEGNELQRHADEFLLDLGHHERSIMTDLYYLSQTDGAGDWREKEAKDLTELVQRRITYLQNPKDCSKAKKLVCNINKGCGYGCQLHHVVYCFMIAYGTQRTLILESQNWRYATGGWETVFRPVSETCTDRSGISTGHWSGEVKDKNVQVVELPIVDSLHPRPPYLPLAVPEDLADRLVRVHGDPAVWWVSQFVKYLIRPQPWLEKEIEEATKKLGFKHPVIGVHVRRTDKVGTEAAFHPIEEYMVHVEEHFQLLARRMQVDKKRVYLATDDPSLLKEAKTKYPNYEFISDNSISWSAGLHNRYTENSLRGVILDIHFLSQADFLVCTFSSQVCRVAYEIMQTLHPDASANFHSLDDIYYFGGQNAHNQIAIYAHQPRTADEIPMEPGDIIGVAGNHWDGYSKGVNRKLGRTGLYPSYKVREKIETVKYPTYPEAEK
notes: human FUT8, soluble form from Arg68 to the C terminus (Lys575); Plasmid pcDNA-IH/FUT8; also called purified soluble FUT8; recombinant soluble FUT8; source: COS7, transfected, purified from the culture medium (Ni2+ column, NAP-5 desalting)
binding result [2]: binds

B6: FUT8 stem (N-terminal part of FUT8, cytosolic region to stem region) fused with LgBiT or SmBiT (domain or fragment, human, UniProt Q9BYC5 1-108, looked up)
chain: MRPWTGSWRWIMLILFAWGTLLFYIGGHLVRDNDHPDHSSRELSKILAKLERLKQQNEDLRRMAESLRIPEGPIDQGPAIGRVRVLEEQLVKAKEQIENYKKQTRNGL
notes: human FUT8, 1st to 326th base of the cDNA: cytosolic region, transmembrane region and stem region (stem ends at Leu108); Two differently tagged copies of the same fragment; no chain bears both LgBiT and SmBiT; The 326th base is two bases past codon 108; also called FUT8 stem-LgBiT; FUT8 stem-SmBiT; source: HEK293 FUT8KO, transfected, in lysate; not shown: LgBiT (one copy; vector pBiT1.1-C …)
relative luminescence (NanoBiT, relative to Mock) [3]: 165 relative to Mock

coprecipitated anti-Myc signal (IP/input) relative to FUT8 WT [1]: 0.0934 relative to FUT8 WT
B7: FUT8Δhelix 1 (enzyme, human, UniProt Q9BYC5 1-575, looked up)
chain: MRPWTGSWRWIMLILFAWGTLLFYIGGHLVRDNDHRIPEGPIDQGPAIGRVRVLEEQLVKAKEQIENYKKQTRNGLGKDHEILRRRIENGAKELWFFLQSELKKLKNLEGNELQRHADEFLLDLGHHERSIMTDLYYLSQTDGAGDWREKEAKDLTELVQRRITYLQNPKDCSKAKKLVCNINKGCGYGCQLHHVVYCFMIAYGTQRTLILESQNWRYATGGWETVFRPVSETCTDRSGISTGHWSGEVKDKNVQVVELPIVDSLHPRPPYLPLAVPEDLADRLVRVHGDPAVWWVSQFVKYLIRPQPWLEKEIEEATKKLGFKHPVIGVHVRRTDKVGTEAAFHPIEEYMVHVEEHFQLLARRMQVDKKRVYLATDDPSLLKEAKTKYPNYEFISDNSISWSAGLHNRYTENSLRGVILDIHFLSQADFLVCTFSSQVCRVAYEIMQTLHPDASANFHSLDDIYYFGGQNAHNQIAIYAHQPRTADEIPMEPGDIIGVAGNHWDGYSKGVNRKLGRTGLYPSYKVREKIETVKYPTYPEAEK
notes: human FUT8; start codon to the 105th base joined to the 202nd to 1725th base of the cDNA, so that Helix 1 (Pro36-Leu67) is missing; also called Myc-tagged FUT8 Δhelix 1; source: HEK293 FUT8KO, transfected, in lysate; not shown: Myc, C-terminal, kept
